Results reported in US6998240B2, “Screen for selective inhibitors or activators of Smad protein function” (Wisconsin Alumni Research Foundation, priority 2001, dated 2006).

Experiments:
[1] = biological target: T1, Phosphorylated Smad2/4 Complex (Homo sapiens, UniProt Q15796); assay: microplate solid-phase assay; Smad2P4 0.25 ug/well; biotinylated GST-CBP 1:2000
[2] = biological target: unphosphorylated Smad2 (His-tagged, full length) (UniProt Q15796); assay: microplate solid-phase assay; Smad2 0.25 ug/well; biotinylated GST-CBP 1:2000
[3] = biological target: unphosphorylated Smad2 (His-tagged, full length) (UniProt Q15796); assay: microplate solid-phase assay; Smad2 0.25 ug/well; biotinylated GST-CBP 1:1000, duplicate well
[4] = biological target: T1, Phosphorylated Smad2/4 Complex; assay: microplate solid-phase assay; Smad2P4 0.125 ug/well; biotinylated GST-CBP 1:1000
[5] = biological target: unphosphorylated Smad2 (His-tagged, full length) (UniProt Q15796); assay: microplate solid-phase assay; Smad2 0.50 ug/well; biotinylated GST-CBP 1:500
[6] = biological target: unphosphorylated Smad2 (His-tagged, full length) (UniProt Q15796); assay: microplate solid-phase assay; Smad2 0.50 ug/well; biotinylated GST-CBP 1:1000
[7] = biological target: T1, Phosphorylated Smad2/4 Complex; assay: microplate solid-phase assay; Smad2P4 0.125 ug/well; biotinylated GST-CBP 1:1000, duplicate well
[8] = biological target: unphosphorylated Smad2 (His-tagged, full length) (UniProt Q15796); assay: microplate solid-phase assay; Smad2 0.50 ug/well; biotinylated GST-CBP 1:2000, duplicate well
[9] = biological target: T1, Phosphorylated Smad2/4 Complex; assay: microplate solid-phase assay; Smad2P4 0.25 ug/well; biotinylated GST-CBP 1:1000
[10] = biological target: T1, Phosphorylated Smad2/4 Complex; assay: microplate solid-phase assay; Smad2P4 0.25 ug/well; biotinylated GST-CBP 1:500
[11] = biological target: T1, Phosphorylated Smad2/4 Complex; assay: microplate solid-phase assay; Smad2P4 0.125 ug/well; biotinylated GST-CBP 1:2000
[12] = biological target: T1, Phosphorylated Smad2/4 Complex; assay: microplate solid-phase assay; Smad2P4 0.125 ug/well; biotinylated GST-CBP 1:500, duplicate well
[13] = biological target: unphosphorylated Smad2 (His-tagged, full length) (UniProt Q15796); assay: microplate solid-phase assay; Smad2 0.25 ug/well; biotinylated GST-CBP 1:2000, duplicate well
[14] = biological target: unphosphorylated Smad2 (His-tagged, full length) (UniProt Q15796); assay: microplate solid-phase assay; Smad2 0.25 ug/well; biotinylated GST-CBP 1:1000
[15] = biological target: T1, Phosphorylated Smad2/4 Complex; assay: microplate solid-phase assay; Smad2P4 0.25 ug/well; biotinylated GST-CBP 1:500, duplicate well
[16] = biological target: unphosphorylated Smad2 (His-tagged, full length) (UniProt Q15796); assay: microplate solid-phase assay; Smad2 0.50 ug/well; biotinylated GST-CBP 1:500, duplicate well
[17] = biological target: T1, Phosphorylated Smad2/4 Complex; assay: microplate solid-phase assay; Smad2P4 0.125 ug/well; biotinylated GST-CBP 1:2000, duplicate well
[18] = biological target: T1, Phosphorylated Smad2/4 Complex; assay: microplate solid-phase assay; Smad2P4 0.50 ug/well; biotinylated GST-CBP 1:1000
[19] = biological target: T1, Phosphorylated Smad2/4 Complex; assay: microplate solid-phase assay; Smad2P4 0.50 ug/well; biotinylated GST-CBP 1:2000
[20] = biological target: T1, Phosphorylated Smad2/4 Complex; assay: microplate solid-phase assay; Smad2P4 0.50 ug/well; biotinylated GST-CBP 1:2000, duplicate well
[21] = biological target: unphosphorylated Smad2 (His-tagged, full length) (UniProt Q15796); assay: microplate solid-phase assay; Smad2 0.25 ug/well; biotinylated GST-CBP 1:500, duplicate well
[22] = biological target: unphosphorylated Smad2 (His-tagged, full length) (UniProt Q15796); assay: microplate solid-phase assay; Smad2 0.25 ug/well; biotinylated GST-CBP 1:500
[23] = biological target: unphosphorylated Smad2 (His-tagged, full length) (UniProt Q15796); assay: microplate solid-phase assay; Smad2 0.50 ug/well; biotinylated GST-CBP 1:1000, duplicate well
[24] = biological target: T1, Phosphorylated Smad2/4 Complex; assay: microplate solid-phase assay; Smad2P4 0.50 ug/well; biotinylated GST-CBP 1:500, duplicate well
[25] = biological target: T1, Phosphorylated Smad2/4 Complex; assay: microplate solid-phase assay; Smad2P4 0.50 ug/well; biotinylated GST-CBP 1:500
[26] = biological target: T1, Phosphorylated Smad2/4 Complex; assay: microplate solid-phase assay, biotinylated GST-CBP, streptavidin-AP
[27] = biological target: unphosphorylated Smad2 (His-tagged, full length) (UniProt Q15796); assay: microplate solid-phase assay; Smad2 0.50 ug/well; biotinylated GST-CBP 1:2000
[28] = biological target: T1, Phosphorylated Smad2/4 Complex; assay: microplate solid-phase assay; Smad2P4 0.125 ug/well; biotinylated GST-CBP 1:500
[29] = biological target: T1, Phosphorylated Smad2/4 Complex; assay: microplate solid-phase assay; Smad2P4 0.50 ug/well; biotinylated GST-CBP 1:1000, duplicate well
[30] = biological target: T1, Phosphorylated Smad2/4 Complex; assay: microplate solid-phase assay; Smad2P4 0.25 ug/well; biotinylated GST-CBP 1:2000, duplicate well
[31] = biological target: T1, Phosphorylated Smad2/4 Complex; assay: microplate solid-phase assay; Smad2P4 0.25 ug/well; biotinylated GST-CBP 1:1000, duplicate well
[32] = biological target: phosphorylated Smad2 (His-tagged, full length, from Sf9 cells co-infected with Alk5 T204D virus) (UniProt Q15796); assay: HTRF competition against 500 nM biotinylated FAST peptide
[33] = biological target: phosphorylated Smad2 (His-tagged, full length, from Sf9 cells co-infected with Alk5 T204D virus) (UniProt Q15796); assay: HTRF, biotin-FAST binding to Smad2-P, no inhibitor

biotinylated GST-CBP protein (from UniProt P08515 1-218)
relative light units (RLU) [1]: 176000 RLU
relative light units (RLU) [2]: 6600 RLU
relative light units (RLU) [3]: 7830 RLU
relative light units (RLU) [4]: 82900 RLU
relative light units (RLU) [5]: 26600 RLU
relative light units (RLU) [6]: 23000 RLU
relative light units (RLU) [7]: 82300 RLU
relative light units (RLU) [8]: 11000 RLU
relative light units (RLU) [9]: 181000 RLU
relative light units (RLU) [10]: 204000 RLU
relative light units (RLU) [11]: 82200 RLU
relative light units (RLU) [12]: 74300 RLU
relative light units (RLU) [13]: 4340 RLU
relative light units (RLU) [14]: 6680 RLU
relative light units (RLU) [15]: 191000 RLU
relative light units (RLU) [16]: 26300 RLU
relative light units (RLU) [17]: 85100 RLU
relative light units (RLU) [18]: 306000 RLU
relative light units (RLU) [19]: 303000 RLU
relative light units (RLU) [20]: 285000 RLU
relative light units (RLU) [21]: 8900 RLU
relative light units (RLU) [22]: 11100 RLU
relative light units (RLU) [23]: 23500 RLU
relative light units (RLU) [24]: 236000 RLU
relative light units (RLU) [25]: 358000 RLU
fold more CBP bound than by an equivalent amount of unphosphorylated Smad [26]: > 30 fold
relative light units (RLU) [27]: 11300 RLU
relative light units (RLU) [28]: 72000 RLU
relative light units (RLU) [29]: 323000 RLU
relative light units (RLU) [30]: 162000 RLU
relative light units (RLU) [31]: 182000 RLU

GST-trx-FAST fusion protein (FAST SIM peptide aptamer on thioredoxin scaffold) (from UniProt O75593 327-350) (designed binder)
IC50 [32]: 250 nM

biotinylated FAST peptide (24 mer, Smad interaction motif of human FAST) (from UniProt O75593 327-350)
Average Normalized Counts [33]: 1880 counts
